Assay results published in PMC3784471 (PLoS Pathogens, 2013).
Ends that are not written are not given here.

Biological target: T1, Hendra virus nucleoprotein C-terminal domain N_(TAIL) (residues 401-532) (Hendra virus, UniProt O89339 401-532)
T1 sequence: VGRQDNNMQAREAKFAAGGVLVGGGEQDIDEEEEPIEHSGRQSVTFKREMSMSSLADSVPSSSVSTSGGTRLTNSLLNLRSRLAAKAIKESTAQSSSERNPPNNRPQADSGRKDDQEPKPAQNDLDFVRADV
Assay: NMR titration; […]) ([…]); 298 K; […], pH 6.0
Details: both partners purified

B1: Hendra virus phosphoprotein X domain (XD, residues 654-707), 13C,15N labeled, without hexahistidine tag (domain or fragment)
chain: ADDASKDVVRTMIRTHIKDRELRSELMDYLNRAETDEEVQEVANTVNDIIDGNI
modifications: also: 13C,15N labeled
- binding result: binds
